# Data: patent US20070167369A1, “Novel use of isolated polypeptide comprising four FAS-1 domains, EM1 domain and RGD motif” (KYUNGPOOK NATIONAL UNIVERSITY INDUSTRY-ACADEMIC COOPERATION …, priority 2004, published 2007)
# B1: fas-1 domain: recombinant protein containing the fourth fas-1 domain of human βig-h3 (SEQ ID NO: 64) (protein, listed as Homo sapiens)
# chain: MGTVMDVLKGDNRFSMLVAAIQSAGLTETLNREGVYTVFAPTNEAFRALPPRERSRLLGDAKELANILKYHIGDEILVSGGIGALVRLKSLQGDKLEVSLKNNVVSVNKEPVAEPDIMATNGVVHVITNVL
# B2: truncated βig-h3: recombinant human βig-h3 with EMI domain, all four fas-1 domains and RGD motif; residues 68-653 of SEQ ID NO: 1 (SEQ ID NO: 66) (protein, listed as Homo sapiens)
# chain: WYQRKICGKSTVISYECCPGYEKVPGEKGCPAALPLSNLYETLGVVGSTTTQLYTDRTEKLRPEMEGPGSFTIFAPSNEAWASLPAEVLDSLVSNVNIELLNALRYHMVGRRVLTDELKHGMTLTSMYQNSNIQIHHYPNGIVTVNCARLLKADHHATNGVVHLIDKVISTITNNIQQIIEIEDTFETLRAAVAASGLNTMLEGNGQYTLLAPTNEAFEKIPSETLNRILGDPEALRDLLNNHILKSAMCAEAIVAGLSVETLEGTTLEVGCSGDMLTINGKAIISNKDILATNGVIHYIDELLIPDSAKTLFELAAESDVSTAIDLFRQAGLGNHLSGSERLTLLAPLNSVFKDGTPPIDAHTRNLLRNHIIKDQLASKYLYHGQTLETLGGKKLRVFVYRNSLCIENSCIAAHDKRGRYGTLFTMDRVLTPPMGTVMDVLKGDNRFSMLVAAIQSAGLTETLNREGVYTVFAPTNEAFRALPPRERSRLLGDAKELANILKYHIGDEILVSGGIGALVRLKSLQGDKLEVSLKNNVVSVNKEPVAEPDIMATNGVVHVITNVLQPPANRPQERGDELADSALEI
# Columns and labels:
# [1] = system: HUVECs; assay: Migration of endothelial cells to vitronectin, transwell (Example 13-2); type: cell-based, human; settings: for IC50: read-out: half-inhibition of migration toward vitronectin observed at; for inhibition of migration to vitronectin: various concentrations, 4 to 6 hours
# Experimental: Cell migration assays were done in transwell plates (8 μm pore size, Costar, Cambridge, Mass.). The undersurface of the membrane was coated with 5 μg/ml of vitronectin at 4° C. and blocked for 1 hour at room temperature with PBS containing 2% BSA. HUVECs were suspended in medium at a density of 3×10^5 cells/ml, and 0.1 ml of the cell suspension was pre-incubated with or without the indicated concentration of the truncated βig-h3, the fas-1 domain and Regenin for 40 min at 37° C., then added to the upper compartment of the filter. Cells were allowed to migrate for 4 to 6 hours at 37° C. The filters were fixed with 8% glutaraldehyde and stained with crystal violet, and non-migrating cells on the upper surface of the filter were removed by wiping with a cotton swab. The extent of cell migration was determined by light microscopy, and within each well, counting was done in nine randomly selected microscopic high power fields (x200).
# [2] = system: Murine melanoma cells (B16F10) tumor; assay: B16F10 tumor growth in BALB/c nude mice (Example 15-1); type: in vivo; settings: for tumor growth inhibition compared with control: i.p. everyday from 7 days after inoculation
# Experimental: Murine melanoma cells (B16F10) were cultured in RPMI 1640 containing 25 mM/L HEPES with 10% fetal bovine serum. Male BALB/c nude mice (5-6 weeks old) were implanted with 1×10^6 B16F10 cells into the flank subcutis and monitored tumor growth and neovascularization after systemic treatment with exogenous fas-1 domain (5 μM) or truncated βig-h3 (50 nM or 10 nM). Experimental groups were i.p. injected everyday from 7 days after tumor cell inoculation with the indicated concentration of fas-1 domain or truncated βig-h3 in a total volume of 0.1 ml PBS. The control group was given an equal volume of PBS each day. Each experimental group consisted of six to eight mice. Tumor sizes were measured using Vernier calipers every 2 to 3 days, and the measured values were substituted in the following equation (2) to calculate the volumes of the tumor. Volume of tumor=width^2×length×0.52. [Equation 2]
# Wherein, ‘width’ is the shortest diameter.
# [3] = system: HUVECs; assay: Transwell migration of endothelial cells toward βig-h3 (Example 4-2); type: cell-based, human
# Experimental: The present inventors tested whether the fas-1 domain has the activity to inhibit the migration of endothelial cells (Nam, J. O. et al., J. Biol. Chem., 278:25902-25909, 2003). Cell migration assay was performed in a transwell plate (8 μm pore size, Costar, Cambridge, Mass.). The undersurface of the membrane was coated with the recombinant βig-h3 His-1-b (10 μg/ml) protein prepared in Example 1, at 4° C., and then, blocked for 1 hour at room temperature with PBS buffer containing 2% BSA. Meanwhile, HUVECs were added with the fas-1 domain (βig-h3 D-IV) prepared in Example 1, and preincubated at 37° C. for 30 minutes. A control was added with 2% BSA. Then, the HUVECs preincubated with the fas-1 domain were suspended in medium at a density of 3×10^5 cells/ml, and 0.1 ml of the cell suspension was added to the upper compartment of the filter. The cells were allowed to migrate at 37° C. for 6-8 hours.
# Migration was terminated by removing the cells from the upper compartment of the filter with a cotton swab. The filters were fixed with 8% glutaraldehyde and stained with crystal violet. The extent of cell migration was determined by light microscope, and within each well, cell counting was done in nine randomly selected fields HPF (Microscopic high power fields, x200).
# [4] = system: HUVECs; assay: Endothelial tube formation in Matrigel (Example 14); type: cell-based, human; settings: for 70%-inhibition of tube formation observed at: concentration giving 70% inhibition; for inhibition of tube formation: various concentrations, 6 to 10 hours
# Experimental: Matrigel (Chemicon, International Inc, Temecula, Calif.) was added (100 μl) into each well of a 96-well plate and polymerized for 30 minutes at 37° C. HUVECs were suspended in medium at a density of 3×10^5 cells/ml, and 0.1 ml of the cell suspension was pre-incubated with or without the indicated concentration of the truncated βig-h3, the fas-1 domain and Regenin for 40 min at 37° C., then seeded on the surface of the Matrigel. Cells were incubated for 6 to 10 hours at 37° C. The cells were then photographed, and branch points from 4 high-power fields (x200) were counted and averaged.
# [5] = system: melanoma cells (B16F10); assay: Apoptosis by annexin V staining/FACS, melanoma cells (Example 7-1); type: cell-based, murine; settings: 48 hours
# Experimental: Annexin V is a protein binding to calcium-dependent phospholipid, and known to have a strong affinity for phosphatidylserine such that apoptosis can be assayed. For this reason, the present inventors performed a test using an annexin V staining kit (Santa Cruz Biotechnology Inc.).
# Each of human umbilical vein endothelial cells (HUVECs) and melanoma cells (B16F10) was suspended in medium at a density of 5×10^5 cells/ml, added to each well of […] and incubated at 37° C. overnight. On the next day, the cells were washed one time with PBS buffer, then added with serum-free medium and incubated at 37° C. for 24 hours. 0.2% FBS-containing fresh medium was treated with the fas-1 domain (βig-h3 D-IV) prepared in Example 1, at various concentrations, then added to each well of the plate and incubated at 37° C. for 48 hours. A negative control was added with PBS, a positive control was incubated with TNF-α or Vitamin C, which are known to induce the apoptosis of endothelial cells and melanoma cells. FITC (fluorescein isothiocyanate)-conjugated annexin V antibodies were added and allowed to react at 4° C. for one hour. After completion of the reaction, unbound annexin V antibodies were removed with PBS buffer, and the apoptosis of the cells was analyzed using FACS (BD Biosciences).
# [6] = system: HUVEC; assay: Adhesion of endothelial cells to vitronectin (Example 13-1); type: cell-based, human
# Experimental: Flat-bottomed 96-well ELISA plates (Costar, Corning, Inc., NY) were incubated overnight at 4° C. with 5 μg/ml of vitronectin (Promega, Madison, Wis.) and blocked for 1 hour at room temperature with PBS containing 2% bovine serum albumin (BSA).
# Primary human umbilical vein endothelial cells (HUVEC) were cultured at 37° C. in 5% CO2 in M199 medium supplemented with 20% fetal bovine serum. For all the experiments, HUVECs were used at passage 4 or less. HUVEC cells were suspended in medium at a density of 3×10^5 cells/ml, and 0.1 ml of the cell suspension was pre-incubated with or without the indicated concentration of the truncated βig-h3, the fas-1 domain and Regenin for 40 min at 37° C., then added to each well of the coated. After incubation for 5 to 10 minutes at 37° C., unattached cells were removed by rinsing with PBS. Attached cells were then incubated for 1 hour at 37° C. in 50 mM citrated buffer (pH 5.0) containing 3.75 mM p-nitrophenyl-N-acetyl-Dglycosamide and 0.25% Triton X-100. Enzyme activity was blocked by adding 50 mM glycine buffer (pH 10.4) containing 5 mM EDTA, and the absorbance was measured at 405 nm in a Bio-Rad model 550 microplate reader.
# [7] = various concentrations, vitronectin 5 μg/ml
Molecule,IC50 [1] [µM],inhibition of migration to vitronectin [1],tumor growth inhibition compared with control ([2]; 5 μM (10 mg/kg)),"inhibitory effect of endothelial cell migration compared with YH motif-containing peptide fragment of 18 amino acids ([3]; 20 μM fas-1 domain vs 1,000 μM YH peptide)",inhibition of migration of endothelial cells promoted by βig-h3 ([3]; transwell coated with βig-h3 His-1-b 10 μg/ml),70%-inhibition of tube formation observed at [4] [µM],inhibition of tube formation [4],induction of apoptosis of B16F10 cells [5],inhibition of adhesion to vitronectin ([6]; 500 nM),"inhibition of adhesion to vitronectin [6, 7]",inhibition of migration of endothelial cells to vitronectin ([1]; 500 nM),"tumor growth inhibition ([2]; 10 nM (68 μg/kg), i.p. everyday)",tumor growth inhibition compared with control ([2]; 50 nM (340 μg/kg)),"inhibition of adhesion to vitronectin ([6]; 500, 50 and 10 nM)"
B1,5,dose-dependent inhibition,equivalent levels of tumor growth inhibition,higher,inhibited by the fas-1 domain in a dose-dependent manner,5,dose-dependent inhibition,did not induce the apoptosis of B16F10 cells,ineffective,dose-dependent inhibition,–,–,–,–
B2,0.05,dose-dependent inhibition,–,–,–,0.05,dose-dependent inhibition,–,–,dose-dependent inhibition,strongly suppressed,inhibitory effect of tumor growth,equivalent levels of tumor growth inhibition,clear dose-response effect
